Values quoted from earlier work as cited in PMC2686754.

What was measured:
[1] = target: TGF-β1 (Homo sapiens) (UniProt P01137)
[2] = target: BMP4 (Homo sapiens) (UniProt P12644)
UniProt P12644, sequence (P12644 293-408): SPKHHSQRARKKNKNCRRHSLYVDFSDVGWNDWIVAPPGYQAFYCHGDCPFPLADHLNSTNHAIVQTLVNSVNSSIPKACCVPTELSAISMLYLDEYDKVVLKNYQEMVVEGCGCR

UniProt P01137, sequence (P01137 279-390): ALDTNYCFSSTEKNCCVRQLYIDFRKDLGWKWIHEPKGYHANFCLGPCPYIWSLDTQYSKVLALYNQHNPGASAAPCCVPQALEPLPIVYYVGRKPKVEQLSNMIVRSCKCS

Substance: CCN2 (from UniProt P29279)
- Kd [1]: 30 nM
- Kd [2]: 5 nM
